For this series, the target named is T1, CTCF recombinant full-length (OriGene) (UniProt P49711).
T1 sequence: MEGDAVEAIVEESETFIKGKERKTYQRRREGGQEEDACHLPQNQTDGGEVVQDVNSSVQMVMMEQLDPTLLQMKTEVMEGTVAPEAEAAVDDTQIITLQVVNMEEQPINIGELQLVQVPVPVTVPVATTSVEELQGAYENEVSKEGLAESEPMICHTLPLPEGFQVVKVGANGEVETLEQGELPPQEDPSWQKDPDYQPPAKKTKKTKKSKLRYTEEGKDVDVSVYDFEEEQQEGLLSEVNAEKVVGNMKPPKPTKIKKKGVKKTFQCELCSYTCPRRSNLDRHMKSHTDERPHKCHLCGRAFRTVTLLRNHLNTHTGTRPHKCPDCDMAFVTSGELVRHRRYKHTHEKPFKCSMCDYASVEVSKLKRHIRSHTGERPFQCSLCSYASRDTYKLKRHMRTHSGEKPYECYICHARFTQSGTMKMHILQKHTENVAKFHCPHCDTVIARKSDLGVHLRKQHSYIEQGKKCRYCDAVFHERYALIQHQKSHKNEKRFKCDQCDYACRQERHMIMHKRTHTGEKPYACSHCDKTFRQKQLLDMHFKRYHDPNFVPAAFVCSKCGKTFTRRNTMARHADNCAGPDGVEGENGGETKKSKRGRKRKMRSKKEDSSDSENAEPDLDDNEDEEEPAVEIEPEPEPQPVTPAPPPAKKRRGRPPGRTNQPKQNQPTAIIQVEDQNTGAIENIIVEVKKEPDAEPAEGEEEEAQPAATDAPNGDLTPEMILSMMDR
Kind of series: EMSA, competition. To be noted: LightShift Chemiluminescent RNA EMSA Kit (20158) and Pierce Magnetic RNA-Protein Pull-down Kit (20164) protocols; buffer, salt, pH and temperature not stated. (In general: Mobility shift assays separate free from complexed probe on a gel.)

On to “TTTACAGCGGTGAGGACCACCAAGGGGAGCTAAAATTCGAATGTAGGGAACAGACGATTAACAAGTTAGTTTCAGAATGAAAGACTCGAGTGTAAGAATTCAATGGGATAATTCCTGTAAAGCGTTTAGTACAGTAAAGAGCGAAGGGAAATTCTGAATAAAAGGCAGACACTATTTTAGGATTTGGCCTTCCCCG (double strand) [RAB5A-set3 promoter DNA probe (196 bp)]”, for which the binding entry is reported as “binds”.
